Data reported in paper PMC9482650, “Quantitative fragmentomics allow affinity mapping of interactomes” (Nature Communications, 2022).

Experiments:
Experiment in all cases: holdup assay
Parameters in all cases: key: below the threshold = too weak to quantify, mostly under pKd 3.1 to 4
APBA2_1, Q99767 = target: T1, APBA2_1, Q99767
T1 sequence (Q99767 563-664, limits assumed, looked up): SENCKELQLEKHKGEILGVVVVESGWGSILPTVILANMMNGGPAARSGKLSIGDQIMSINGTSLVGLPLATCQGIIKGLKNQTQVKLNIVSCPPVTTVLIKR

SCRIB_1, Q14160 = target: SCRIB_1, Q14160
GRIP1_3, Q9Y3R0 = target: T2, GRIP1_3, Q9Y3R0
T2 sequence (Q9Y3R0 247-346, limits assumed, looked up): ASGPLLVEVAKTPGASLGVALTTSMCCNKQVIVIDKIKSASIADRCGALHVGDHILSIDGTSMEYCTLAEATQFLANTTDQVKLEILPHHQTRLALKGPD

Inadl_4, Q8NI35 = target: Inadl_4, Q8NI35
HTRA2, O43464 = target: HTRA2, O43464
LNX2_2, Q8N448 = target: T3, LNX2_2, Q8N448
T3 sequence (Q8N448 334-432, limits assumed, looked up): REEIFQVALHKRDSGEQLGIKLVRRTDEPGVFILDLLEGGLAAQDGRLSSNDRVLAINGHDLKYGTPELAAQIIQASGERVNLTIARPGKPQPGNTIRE

LNX1_2, Q8TBB1 = target: LNX1_2, Q8TBB1
DLG2_2, Q15700 = target: DLG2_2, Q15700
Inadl_3, Q8NI35 = target: Inadl_3, Q8NI35
PDZD7_3, Q9H5P4 = target: T4, PDZD7_3, Q9H5P4
T4 sequence (Q9H5P4 857-944, limits assumed, looked up): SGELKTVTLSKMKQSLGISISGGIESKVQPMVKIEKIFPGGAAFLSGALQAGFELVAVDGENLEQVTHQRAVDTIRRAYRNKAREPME

GRIP1_4, Q9Y3R0 = target: T5, GRIP1_4, Q9Y3R0
T5 sequence (Q9Y3R0 467-571, limits assumed, looked up): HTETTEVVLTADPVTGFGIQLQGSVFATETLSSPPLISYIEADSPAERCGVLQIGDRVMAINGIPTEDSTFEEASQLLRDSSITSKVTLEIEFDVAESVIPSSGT

PTPN13_1, Q12923 = target: T6, PTPN13_1, Q12923
T6 sequence (Q12923 1088-1188, limits assumed, looked up): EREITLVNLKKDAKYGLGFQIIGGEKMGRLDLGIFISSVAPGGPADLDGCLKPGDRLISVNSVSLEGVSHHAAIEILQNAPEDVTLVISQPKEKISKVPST

ARHGEF12, Q9NZN5-2 = target: ARHGEF12, Q9NZN5-2
MPDZ_12, O75970 = target: T7, MPDZ_12, O75970
T7 sequence (O75970 1857-1958, limits assumed, looked up): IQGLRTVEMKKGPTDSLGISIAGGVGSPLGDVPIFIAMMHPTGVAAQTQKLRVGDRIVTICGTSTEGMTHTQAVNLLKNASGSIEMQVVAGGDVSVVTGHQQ

DLG2_3, Q15700 = target: DLG2_3, Q15700
GIPC2, Q8TF65 = target: GIPC2, Q8TF65
Inadl_1, Q8NI35 = target: Inadl_1, Q8NI35
GOPC, Q9HD26 = target: GOPC, Q9HD26
PDLIM1, O00151 = target: PDLIM1, O00151
LDB3, O75112 = target: LDB3, O75112
SNTA1, Q13424 = target: T8, SNTA1, Q13424
T8 sequence (Q13424 82-180, limits assumed, looked up): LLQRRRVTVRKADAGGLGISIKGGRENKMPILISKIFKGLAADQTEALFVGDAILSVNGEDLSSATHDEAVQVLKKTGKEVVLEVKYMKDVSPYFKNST

GRIP2_7, Q9C0E4 = target: GRIP2_7, Q9C0E4
GRIP1_2, Q9Y3R0 = target: T9, GRIP1_2, Q9Y3R0
T9 sequence (Q9Y3R0 145-248, limits assumed, looked up): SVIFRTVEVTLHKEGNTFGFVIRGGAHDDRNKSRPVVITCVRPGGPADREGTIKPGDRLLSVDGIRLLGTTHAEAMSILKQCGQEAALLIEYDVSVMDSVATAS

PICK1, Q9NRD5 = target: PICK1, Q9NRD5
MAST2, Q6P0Q8 = target: MAST2, Q6P0Q8
ARHGEF11, O15085 = target: T10, ARHGEF11, O15085
T10 sequence (O15085 42-136, limits assumed, looked up): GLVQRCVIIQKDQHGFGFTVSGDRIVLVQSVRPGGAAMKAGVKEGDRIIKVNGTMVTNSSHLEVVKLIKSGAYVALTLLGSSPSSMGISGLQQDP

SIPA1L2, Q9P2F8 = target: T11, SIPA1L2, Q9P2F8
T11 sequence (Q9P2F8 945-1036, limits assumed, looked up): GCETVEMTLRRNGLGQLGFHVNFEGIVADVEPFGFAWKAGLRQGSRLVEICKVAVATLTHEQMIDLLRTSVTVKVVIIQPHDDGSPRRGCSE

[1] = plain residues with an end cap or a label only (N-terminal biotin on a linker: ado-ado)
[2] = plain residues with an end cap or a label only (N-terminal biotin on a linker: ahx)

Measured: pKd

Sequence of ARHGEF12, Q9NZN5-2 (Q9NZN5 other isoform, or with tags, fused parts or gaps): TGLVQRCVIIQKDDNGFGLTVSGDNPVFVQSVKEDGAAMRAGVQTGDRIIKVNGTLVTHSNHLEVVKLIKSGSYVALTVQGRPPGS
Sequence of Inadl_1, Q8NI35 (Q8NI35 113-229): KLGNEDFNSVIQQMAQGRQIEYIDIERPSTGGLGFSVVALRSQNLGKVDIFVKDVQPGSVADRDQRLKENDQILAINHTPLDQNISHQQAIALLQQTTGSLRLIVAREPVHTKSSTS
Sequence of GRIP2_7, Q9C0E4 (Q9C0E4 934-1023): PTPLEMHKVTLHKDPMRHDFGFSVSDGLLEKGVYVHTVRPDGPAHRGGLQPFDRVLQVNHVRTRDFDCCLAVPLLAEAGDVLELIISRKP
Sequence of HTRA2, O43464 (O43464 355-458): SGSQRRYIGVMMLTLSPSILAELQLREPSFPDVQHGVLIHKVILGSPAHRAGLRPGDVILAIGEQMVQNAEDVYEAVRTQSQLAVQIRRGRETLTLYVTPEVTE
Sequence of GIPC2, Q8TF65 (Q8TF65 112-203): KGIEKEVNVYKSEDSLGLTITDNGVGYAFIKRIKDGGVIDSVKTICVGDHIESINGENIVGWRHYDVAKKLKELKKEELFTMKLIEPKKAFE
Sequence of LDB3, O75112 (O75112 1-94): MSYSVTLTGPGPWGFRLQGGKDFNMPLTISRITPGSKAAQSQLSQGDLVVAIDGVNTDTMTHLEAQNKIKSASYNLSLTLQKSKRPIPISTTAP
Sequence of Inadl_4, Q8NI35 (Q8NI35 547-651): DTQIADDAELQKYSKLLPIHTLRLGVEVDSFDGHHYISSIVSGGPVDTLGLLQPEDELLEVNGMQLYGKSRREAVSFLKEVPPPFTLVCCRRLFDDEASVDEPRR
Sequence of Inadl_3, Q8NI35 (Q8NI35 359-469): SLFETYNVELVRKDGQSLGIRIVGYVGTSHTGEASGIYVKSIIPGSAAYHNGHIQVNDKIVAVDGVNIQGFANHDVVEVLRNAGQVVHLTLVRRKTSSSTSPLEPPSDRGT
Sequence of LNX1_2, Q8TBB1 (Q8TBB1 371-470): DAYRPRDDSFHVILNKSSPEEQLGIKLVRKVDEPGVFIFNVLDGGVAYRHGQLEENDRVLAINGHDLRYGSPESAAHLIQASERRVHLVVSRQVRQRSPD
Sequence of PICK1, Q9NRD5 (Q9NRD5 17-115): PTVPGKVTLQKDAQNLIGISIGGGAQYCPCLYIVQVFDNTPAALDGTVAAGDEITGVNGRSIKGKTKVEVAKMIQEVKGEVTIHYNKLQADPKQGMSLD
Sequence of MAST2, Q6P0Q8 (Q6P0Q8 1099-1202): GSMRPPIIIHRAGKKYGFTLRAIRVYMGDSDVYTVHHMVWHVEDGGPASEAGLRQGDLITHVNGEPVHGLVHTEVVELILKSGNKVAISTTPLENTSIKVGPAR
Sequence of PDLIM1, O00151 (O00151 1-87): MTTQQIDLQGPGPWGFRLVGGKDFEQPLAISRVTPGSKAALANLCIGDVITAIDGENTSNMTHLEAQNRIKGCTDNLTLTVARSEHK
Sequence of SCRIB_1, Q14160 (Q14160 718-814): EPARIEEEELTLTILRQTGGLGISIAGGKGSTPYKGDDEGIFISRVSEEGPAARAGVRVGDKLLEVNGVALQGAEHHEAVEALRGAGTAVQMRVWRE

B1: CLDN18, P56856 (peptide)
chain: QSYPSKHDYV
3.69: LNX1_2, Q8TBB1; [1]
3.57: APBA2_1, Q99767; [1]
below the threshold: SCRIB_1, Q14160; [1] | GRIP1_3, Q9Y3R0; [1] | Inadl_4, Q8NI35; [1] | DLG2_2, Q15700; [1] | Inadl_3, Q8NI35; [1] | GRIP1_4, Q9Y3R0; [1] | PTPN13_1, Q12923; [1] | ARHGEF12, Q9NZN5-2; [1] | MPDZ_12, O75970; [1] | DLG2_3, Q15700; [1] | GIPC2, Q8TF65; [1] | Inadl_1, Q8NI35; [1] | GOPC, Q9HD26; [1] | PDLIM1, O00151; [1] | LDB3, O75112; [1] | GRIP2_7, Q9C0E4; [1]
3.81: ARHGEF11, O15085; [1]
3.53: SIPA1L2, Q9P2F8; [1]
4.17: LNX2_2, Q8N448; [1]
3.58: SNTA1, Q13424; [1] | GRIP1_2, Q9Y3R0; [1]
4.08: PDZD7_3, Q9H5P4; [1]
3.71: HTRA2, O43464; [1]
4.26: PICK1, Q9NRD5; [1]
3.87: MAST2, Q6P0Q8; [1]

B2: HTR2A, P28223 (peptide)
chain: DGVNEKVSCV
4.52: MAST2, Q6P0Q8; [1]
4.66: SNTA1, Q13424; [1]
4.72: PDZD7_3, Q9H5P4; [1]
below the threshold: APBA2_1, Q99767; [1] | SCRIB_1, Q14160; [1] | GRIP1_3, Q9Y3R0; [1] | Inadl_4, Q8NI35; [1] | HTRA2, O43464; [1] | LNX1_2, Q8TBB1; [1] | Inadl_3, Q8NI35; [1] | GRIP1_4, Q9Y3R0; [1] | PTPN13_1, Q12923; [1] | MPDZ_12, O75970; [1] | GIPC2, Q8TF65; [1] | Inadl_1, Q8NI35; [1] | GOPC, Q9HD26; [1] | PDLIM1, O00151; [1] | LDB3, O75112; [1] | GRIP2_7, Q9C0E4; [1] | GRIP1_2, Q9Y3R0; [1] | PICK1, Q9NRD5; [1] | SIPA1L2, Q9P2F8; [1]
4.36: ARHGEF12, Q9NZN5-2; [1]
4.56: DLG2_2, Q15700; [1]
4.18: ARHGEF11, O15085; [1]
4.42: LNX2_2, Q8N448; [1]
3.8: DLG2_3, Q15700; [1]

B3: TIAM1, Q13009 (peptide)
chain: APSRKLNTEI
4.08: PDZD7_3, Q9H5P4; [2]
3.76: ARHGEF12, Q9NZN5-2; [2]
3.66: DLG2_3, Q15700; [2]
below the threshold: APBA2_1, Q99767; [2] | SCRIB_1, Q14160; [2] | GRIP1_3, Q9Y3R0; [2] | Inadl_4, Q8NI35; [2] | HTRA2, O43464; [2] | LNX2_2, Q8N448; [2] | LNX1_2, Q8TBB1; [2] | DLG2_2, Q15700; [2] | Inadl_3, Q8NI35; [2] | GRIP1_4, Q9Y3R0; [2] | PTPN13_1, Q12923; [2] | MPDZ_12, O75970; [2] | GIPC2, Q8TF65; [2] | Inadl_1, Q8NI35; [2] | GOPC, Q9HD26; [2] | PDLIM1, O00151; [2] | LDB3, O75112; [2] | SNTA1, Q13424; [2] | GRIP2_7, Q9C0E4; [2] | GRIP1_2, Q9Y3R0; [2] | PICK1, Q9NRD5; [2] | MAST2, Q6P0Q8; [2] | ARHGEF11, O15085; [2] | SIPA1L2, Q9P2F8; [2]

B4: SRC, P12931 (peptide)
chain: EPQYQPGENL
3.53: HTRA2, O43464; [1]
3.56: PDLIM1, O00151; [1]
3.49: SCRIB_1, Q14160; [1]
below the threshold: APBA2_1, Q99767; [1] | GRIP1_3, Q9Y3R0; [1] | Inadl_4, Q8NI35; [1] | LNX2_2, Q8N448; [1] | LNX1_2, Q8TBB1; [1] | DLG2_2, Q15700; [1] | Inadl_3, Q8NI35; [1] | PDZD7_3, Q9H5P4; [1] | GRIP1_4, Q9Y3R0; [1] | PTPN13_1, Q12923; [1] | ARHGEF12, Q9NZN5-2; [1] | MPDZ_12, O75970; [1] | DLG2_3, Q15700; [1] | GIPC2, Q8TF65; [1] | Inadl_1, Q8NI35; [1] | GOPC, Q9HD26; [1] | LDB3, O75112; [1] | SNTA1, Q13424; [1] | GRIP2_7, Q9C0E4; [1] | GRIP1_2, Q9Y3R0; [1] | PICK1, Q9NRD5; [1] | MAST2, Q6P0Q8; [1] | ARHGEF11, O15085; [1] | SIPA1L2, Q9P2F8; [1]
